IntAct's records for PubMed 22653727

B1: Circadian locomoter output cycles protein kaput (Mus musculus), O08785 (parent)
chain: MVFTVSCSKMSSIVDRDDSSIFDGLVEEDDKDKAKRVSRNKSEKKRRDQFNVLIKELGSMLPGNARKMDKSTVLQKSIDFLRKHKETTAQSDASEIRQDWKPTFLSNEEFTQLMLEALDGFFLAIMTDGSIIYVSESVTSLLEHLPSDLVDQSIFNFIPEGEHSEVYKILSTHLLESDSLTPEYLKSKNQLEFCCHMLRGTIDPKEPSTYEYVRFIGNFKSLTSVSTSTHNGFEGTIQRTHRPSYEDRVCFVATVRLATPQFIKEMCTVEEPNEEFTSRHSLEWKFLFLDHRAPPIIGYLPFEVLGTSGYDYYHVDDLENLAKCHEHLMQYGKGKSCYYRFLTKGQQWIWLQTHYYITYHQWNSRPEFIVCTHTVVSYAEVRAERRRELGIEESLPETAADKSQDSGSDNRINTVSLKEALERFDHSPTPSASSRSSRKSSHTAVSDPSSTPTKIPTDTSTPPRQHLPAHEKMTQRRSSFSSQSINSQSVGPSLTQPAMSQAANLPIPQGMSQFQFSAQLGAMQHLKDQLEQRTRMIEANIHRQQEELRKIQEQLQMVHGQGLQMFLQQSNPGLNFGSVQLSSGNSNIQQLTPVNMQGQVVPANQVQSGHISTGQHMIQQQTLQSTSTQQSQQSVMSGHSQQTSLPSQTPSTLTAPLYNTMVISQPAAGSMVQIPSSMPQNSTQSATVTTFTQDRQIRFSQGQQLVTKLVTAPVACGAVMVPSTMLMGQVVTAYPTFATQQQQAQTLSVTQQQQQQQQQPPQQQQQQQQSSQEQQLPSVQQPAQAQLGQPPQQFLQTSRLLHGNPSTQLILSAAFPLQQSTFPPSHHQQHQPQQQQQLPRHRTDSLTDPSKVQPQ

Columns and labels:
Details in all cases: with Bmal1, Q9WTL8-4
Bmal1, Q9WTL8-4 [1] = variants of: B1
Bmal1, Q9WTL8-4 [2] = variants of: B1; remark: listed apart in the source
Bmal1, Q9WTL8-4 [3] = variants of: B1; remark: listed apart in the source

Sequence of Bmal1, Q9WTL8-4 (Q9WTL8 other isoform, or with tags, fused parts or gaps): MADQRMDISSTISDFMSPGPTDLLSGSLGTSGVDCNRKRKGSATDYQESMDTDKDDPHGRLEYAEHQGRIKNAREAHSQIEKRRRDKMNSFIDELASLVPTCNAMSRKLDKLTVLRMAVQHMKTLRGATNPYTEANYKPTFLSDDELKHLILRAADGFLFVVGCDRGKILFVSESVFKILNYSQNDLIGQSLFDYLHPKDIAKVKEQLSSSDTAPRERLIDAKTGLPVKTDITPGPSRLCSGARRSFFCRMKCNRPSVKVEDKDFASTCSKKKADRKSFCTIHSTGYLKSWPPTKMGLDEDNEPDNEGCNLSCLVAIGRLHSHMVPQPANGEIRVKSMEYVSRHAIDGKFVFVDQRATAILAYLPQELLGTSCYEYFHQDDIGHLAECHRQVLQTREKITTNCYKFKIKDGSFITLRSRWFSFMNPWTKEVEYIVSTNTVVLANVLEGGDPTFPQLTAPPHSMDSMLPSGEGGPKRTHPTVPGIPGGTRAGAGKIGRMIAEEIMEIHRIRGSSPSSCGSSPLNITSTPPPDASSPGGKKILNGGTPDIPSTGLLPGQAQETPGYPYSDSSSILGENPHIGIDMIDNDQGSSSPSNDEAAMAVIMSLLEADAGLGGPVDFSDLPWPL

| Variant | effect of a mutation on the interaction (Bmal1, Q9WTL8-4 [1]) | effect of a mutation on the interaction (Bmal1, Q9WTL8-4 [2]) | effect of a mutation on the interaction (Bmal1, Q9WTL8-4 [3]) |
| --- | --- | --- | --- |
| L57E;L113E;W284A | disrupting interaction strength | disrupting interaction strength | – |
| L57E | with no effect | decreasing interaction strength | – |
| L74E | disrupting interaction strength | decreasing interaction strength | – |

Results, then the variant that gave them:

| effect of a mutation on the interaction (Bmal1, Q9WTL8-4 [1]) | effect of a mutation on the interaction (Bmal1, Q9WTL8-4 [2]) | effect of a mutation on the interaction (Bmal1, Q9WTL8-4 [3]) | Variant |
| --- | --- | --- | --- |
| with no effect | – | – | L113E |
| with no effect | decreasing interaction strength | – | V315R |
| disrupting interaction strength | – | decreasing interaction strength | W284A |
| with no effect | – | – | F122D |
